Target: T1, integrin β3 (endogenous, platelets) (mouse (endogenous in platelets), UniProt O54890 26-787)
T1 construct: integrin β3 endogenous in platelets, precipitated with an anti-integrin β3 antibody; platelets were prepared from mice; In platelets β3 stands in the integrin αIIbβ3; also called platelet integrin β3; β3 integrin; source: endogenous, platelet lysate (NP-40 lysis buffer)
T1 sequence (looked up): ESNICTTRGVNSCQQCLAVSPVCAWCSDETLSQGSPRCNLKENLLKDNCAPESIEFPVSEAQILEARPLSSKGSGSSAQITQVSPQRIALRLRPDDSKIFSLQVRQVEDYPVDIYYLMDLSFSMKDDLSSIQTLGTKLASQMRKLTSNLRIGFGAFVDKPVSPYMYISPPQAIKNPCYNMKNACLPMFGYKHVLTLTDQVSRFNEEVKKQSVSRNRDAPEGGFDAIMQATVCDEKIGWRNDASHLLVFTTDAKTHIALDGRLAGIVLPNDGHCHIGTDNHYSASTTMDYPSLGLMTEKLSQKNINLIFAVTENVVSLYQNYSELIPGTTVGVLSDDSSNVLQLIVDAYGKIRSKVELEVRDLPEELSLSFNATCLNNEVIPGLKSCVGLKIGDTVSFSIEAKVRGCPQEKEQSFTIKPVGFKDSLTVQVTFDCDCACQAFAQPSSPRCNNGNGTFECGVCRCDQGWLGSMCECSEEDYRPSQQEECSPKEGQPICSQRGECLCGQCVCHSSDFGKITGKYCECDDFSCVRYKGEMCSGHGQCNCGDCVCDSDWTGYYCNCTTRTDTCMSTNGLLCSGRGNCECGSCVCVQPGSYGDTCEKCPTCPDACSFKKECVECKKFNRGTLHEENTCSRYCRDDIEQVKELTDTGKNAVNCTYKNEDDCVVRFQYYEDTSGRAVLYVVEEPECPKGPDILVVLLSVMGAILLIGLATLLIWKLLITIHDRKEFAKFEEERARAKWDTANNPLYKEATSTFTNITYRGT
Assay: co-IP; platelets pretreated with 0.1 % DMSO, 100 μM isoflavones or 3 μM SQ29548, stimulated with 0.04 U/mL thrombin, lysed in NP-40 lysis buffer; precipitated with integrin β3 antibody and protein A magnetic beads overnight at 4 °C; western blot
Details: partners not purified

fold increase of co-precipitated 14-3-3ζ on platelet activation against resting platelets: 2.7 fold
B1: 14-3-3ζ (endogenous, platelets) (natural protein, mouse (endogenous in platelets), UniProt P63101 1-245, looked up)
chain: MDKNELVQKAKLAEQAERYDDMAACMKSVTEQGAELSNEERNLLSVAYKNVVGARRSSWRVVSSIEQKTEGAEKKQQMAREYREKIETELRDICNDVLSLLEKFLIPNASQPESKVFYLKMKGDYYRYLAEVAAGDDKKGIVDQSQQAYQEAFEISKKEMQPTHPIRLGLALNFSVFYYEILNSPEKACSLAKTAFDEAIAELDTLSEESYKDSTLIMQLLRDNLTLWTSDTQGDEAEAGEGGEN
notes: 14-3-3ζ endogenous in platelets; platelets were prepared from mice; The methods tell of platelets prepared from wild type and GPIbα deficient mice only; the species is not repeated for the co-immunoprecipitation; source: endogenous, platelet lysate (NP-40 lysis buffer)
